Test results reported in the supplement of paper PMC7125110.
± gives the standard error. For part of these data: Fewer inactive variants are shown than the library holds.

B1: glmS ribozyme (parent)
chain: AUAAAAGCGCCAGAACUACAGAAAUGUAGUUGACGAGGAGGAGGUUUAUCGAAUUUUCGGCGGAUGCCUCCAAA

What was measured:
Details in all cases: with glucosamine-6-phosphate
[1] = variants of: B1; test: kcat; higher = faster cleavage; RNA array
How it was run: (§1)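 The measurements used barcoded ribozyme variants on sequenced MiSeq chips, transcribed in situ by E. coli RNA polymerase and tracked at 37 °C with a hybridised Cy3 probe. Glucosamine-6-phosphate, 40 μM to 10 mM in HEPES/KCl/Mg(OAc)2 buffer, was flowed in while tiles were imaged over ~14 h. Baseline-normalised signals, also normalised to non-cleaving reference variants, gave per-tile medians that were fit to one- or two-exponential decays for kobs. kcat and KM resulted from weighted Michaelis–Menten fits across concentrations.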

[2] = variants of: B1; test: KM; higher = weaker cofactor use; RNA array
How it was run: as §1

[3] = variants of: B1; test: self-cleavage kobs at 10000 uM GlcN6P; higher = faster cleavage; RNA array
How it was run: as §1

[4] = variants of: B1; test: self-cleavage kobs at 40 uM GlcN6P; higher = faster cleavage; RNA array
How it was run: as §1

[5] = variants of: B1; test: self-cleavage kobs at 160 uM GlcN6P; higher = faster cleavage; RNA array
How it was run: as §1

[6] = variants of: B1; test: self-cleavage kobs at 2500 uM GlcN6P; higher = faster cleavage; RNA array
How it was run: as §1

[7] = variants of: B1; test: self-cleavage kobs at 640 uM GlcN6P; higher = faster cleavage; RNA array
How it was run: as §1

| Variant | kcat [1] [s⁻¹] | KM [2] [µM] | self-cleavage kobs at 10000 uM GlcN6P [3] [s⁻¹] | self-cleavage kobs at 40 uM GlcN6P [4] [s⁻¹] | self-cleavage kobs at 160 uM GlcN6P [5] [s⁻¹] | self-cleavage kobs at 2500 uM GlcN6P [6] [s⁻¹] | self-cleavage kobs at 640 uM GlcN6P [7] [s⁻¹] |
| --- | --- | --- | --- | --- | --- | --- | --- |
| G13U G66U | 3.6e-05 ± 2.5e-06 | 3580 ± 630 | 2.65e-05 ± 1.1e-05 |  |  |  |  |
| G29A A64C | < 1e-05 |  |  | < 1e-05 | < 1e-05 |  |  |
| U30G A48U | 7.56e-05 ± 6e-06 | 1040 ± 340 | 6.65e-05 ± 1.1e-05 | < 1e-05 | < 1e-05 | 5.84e-05 ± 1.2e-05 |  |
| G51A G66C | < 1e-05 | 510 ± 240 |  |  |  |  |  |
| G44U A52U | 1.54e-05 ± 1.1e-06 |  |  | < 1e-05 |  |  | < 1e-05 |
| A15U C67U | 0.00194 ± 0.00074 |  | 0.00167 ± 0.00023 | 5.32e-05 ± 6.3e-06 | 0.000161 ± 1.7e-05 | 0.00189 ± 0.00029 | 0.000409 ± 3.4e-05 |
| G40A G41C A53G | 0.000315 ± 0.00011 | 3110 ± 1500 |  |  |  | 0.000139 ± 3.1e-05 | 5.58e-05 ± 1.2e-05 |
| U47G | 0.0175 ± 0.00086 | 2130 ± 130 | 0.0142 ± 0.00058 | 0.000326 ± 7.1e-06 | 0.00112 ± 9.8e-05 | 0.00997 ± 0.00041 | 0.00389 ± 0.00017 |
| A48G A52G | 1.36e-05 ± 9.9e-07 |  |  |  |  |  | < 1e-05 |
| G37C U49G | < 1e-05 |  |  |  |  |  |  |
| U49G U69C | 0.000152 ± 6.9e-06 | 466 ± 86 | 0.00014 ± 3.8e-05 |  |  | 0.000131 ± 2.7e-05 | 8.8e-05 ± 2.4e-05 |
| G41A U55A | 6.65e-05 ± 1.1e-05 |  |  |  | 4.67e-05 ± 1.4e-05 | 5.75e-05 ± 1.2e-05 | 6.66e-05 ± 1.1e-05 |
| U31C C58A | 0.000146 ± 6.8e-06 | 1390 ± 210 | 0.00013 ± 1.5e-05 |  |  | 8.99e-05 ± 1.5e-05 | 5.08e-05 ± 1.5e-05 |
| U57G C67A | 2.87e-05 ± 6.3e-06 |  | 2.45e-05 ± 1.2e-05 |  |  |  |  |
| G13C C58A C61U C70G | 1.31e-05 ± 2.2e-06 |  |  |  |  |  |  |
| C50A G51A | < 1e-05 |  | < 1e-05 |  |  |  |  |
| A14C G44A | 0.000834 ± 0.00022 |  | 4.02e-05 ± 1.1e-05 | < 1e-05 |  |  |  |
| C11A U54C | 0.000278 ± 3.7e-05 | 4640 ± 1100 | 0.000186 ± 3.4e-05 |  |  | 0.00011 ± 2.9e-05 | 3.08e-05 ± 1e-05 |

| Variant | kcat [1] [s⁻¹] | KM [2] [µM] | self-cleavage kobs at 10000 uM GlcN6P [3] [s⁻¹] | self-cleavage kobs at 40 uM GlcN6P [4] [s⁻¹] | self-cleavage kobs at 160 uM GlcN6P [5] [s⁻¹] | self-cleavage kobs at 2500 uM GlcN6P [6] [s⁻¹] | self-cleavage kobs at 640 uM GlcN6P [7] [s⁻¹] |
| --- | --- | --- | --- | --- | --- | --- | --- |
| A39G C50U | 0.000157 ± 2.6e-05 | 3430 ± 1200 | 0.000115 ± 2.5e-05 |  |  | 6.91e-05 ± 1.4e-05 |  |
| C11G A15U U54A C70A | 3.62e-05 ± 1.5e-05 |  |  |  |  |  | 6.28e-05 ± 2.7e-05 |
| U30G G41A | 0.000293 ± 2.6e-05 | 881 ± 160 | 0.000248 ± 4.4e-05 |  | 4.24e-05 ± 1.1e-05 | 0.00025 ± 4.4e-05 | 0.000124 ± 2e-05 |
| A14C G51A A53U G59U C68U | 3.12e-05 ± 1.2e-05 |  |  |  |  |  |  |
| G13A C68U | 6.42e-05 ± 2.2e-06 | 234 ± 85 | 6.26e-05 ± 5.5e-06 |  |  | 5.81e-05 ± 9e-06 | 5.07e-05 ± 1.2e-05 |
| C16U U45G | 0.00669 ± 0.00062 | 2070 ± 280 | 0.00593 ± 0.001 | 0.000135 ± 2.4e-05 | 0.000468 ± 0.00016 | 0.00321 ± 0.00074 | 0.00156 ± 0.00026 |
| G35C C50G G60U | 3.38e-05 ± 1.4e-05 |  |  |  | 5.86e-05 ± 1.9e-05 |  |  |
| A64G C67G | 0.000471 ± 1.9e-05 | 2090 ± 180 | 0.000386 ± 3.6e-05 |  |  | 0.000275 ± 6.1e-05 | 0.000111 ± 1.5e-05 |
| G13U C71U | 0.00114 ± 0.00015 | 2020 ± 470 | 0.000946 ± 9.8e-05 | 2.24e-05 ± 7.7e-06 | 0.000105 ± 1.7e-05 | 0.000673 ± 8.2e-05 | 0.000229 ± 3.7e-05 |
| C16G U47G C50G C68G | 1.23e-05 ± 1.9e-06 |  |  |  |  |  |  |
| U65G C71G | 0.001 ± 0.00022 | 3670 ± 1100 | 0.000734 ± 0.00013 | 2.64e-05 ± 9.6e-06 | 4.2e-05 ± 1e-05 | 0.000413 ± 4.9e-05 | 0.000145 ± 1.5e-05 |
| A14C A36C | < 1e-05 |  |  | < 1e-05 | < 1e-05 |  |  |
| U65G C70G | 0.000265 ± 5.4e-05 | 1470 ± 600 | 0.000228 ± 2.3e-05 |  | 4.76e-05 ± 7.4e-06 | 0.000176 ± 1.3e-05 | 7.04e-05 ± 6.8e-06 |
| U65G C70U | 0.00416 ± 0.00036 | 2980 ± 340 | 0.00315 ± 0.00024 | 5.75e-05 ± 5e-06 | 0.000203 ± 1.7e-05 | 0.00238 ± 0.00036 | 0.000728 ± 6e-05 |
| A12G U49G | 0.00103 ± 0.00035 |  | 6.93e-05 ± 1.7e-05 |  |  |  |  |
| C67A C68G | 4.23e-05 ± 1e-05 |  | 2.51e-05 ± 1.1e-05 |  | 4.13e-05 ± 1.5e-05 | 5.59e-05 ± 1.3e-05 | 5.98e-05 ± 1.7e-05 |
| C16U G32U | 0.0024 ± 0.00062 | 8100 ± 2900 | 0.00137 ± 0.00015 |  | 4.18e-05 ± 1e-05 | 0.000519 ± 5.8e-05 | 0.000214 ± 3.2e-05 |
| G32A A39G | 0.00635 ± 0.0016 | 6190 ± 2000 | 0.00403 ± 0.00055 | 3.65e-05 ± 8.1e-06 | 0.000271 ± 7.2e-05 | 0.00165 ± 0.0003 | 0.000619 ± 9.3e-05 |
